Holding throughout (experiment): EMSA
On the technique in general: Mobility shift assays separate free from complexed probe on a gel.

One data set has as its target Ryp1(N) (Histoplasma capsulatum G217B, UniProt A9QXX8 1-267). Particulars: protein: ivt; tags: C-terminal TEV site-6xHis; label: 5'-IRDye800 (Fwd strand); blunt.
In the next data set the target is Ryp1 (Histoplasma capsulatum G217B, UniProt A9QXX8 1-487). The conditions noted are these: protein: ivt; tags: C-terminal TEV site-6xHis; label: 5'-IRDye800 (Fwd strand); blunt.
In the next data set the target is T1, Ryp2;Ryp3 (Histoplasma capsulatum …, UniProt B2CQK0;B2CQK1 1-404;1-373, |).
T1 sequence 1: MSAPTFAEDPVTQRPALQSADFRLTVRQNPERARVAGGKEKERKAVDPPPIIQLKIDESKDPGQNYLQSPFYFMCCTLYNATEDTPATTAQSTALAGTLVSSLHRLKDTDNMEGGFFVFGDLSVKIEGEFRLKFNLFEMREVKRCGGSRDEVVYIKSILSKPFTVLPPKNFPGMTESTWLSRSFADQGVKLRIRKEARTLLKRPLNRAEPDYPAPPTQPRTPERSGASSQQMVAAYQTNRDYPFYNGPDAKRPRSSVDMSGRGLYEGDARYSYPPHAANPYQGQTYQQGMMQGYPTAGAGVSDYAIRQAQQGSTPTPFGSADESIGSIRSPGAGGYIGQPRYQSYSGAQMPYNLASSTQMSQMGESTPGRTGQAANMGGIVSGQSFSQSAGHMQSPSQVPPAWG
T1 sequence 2: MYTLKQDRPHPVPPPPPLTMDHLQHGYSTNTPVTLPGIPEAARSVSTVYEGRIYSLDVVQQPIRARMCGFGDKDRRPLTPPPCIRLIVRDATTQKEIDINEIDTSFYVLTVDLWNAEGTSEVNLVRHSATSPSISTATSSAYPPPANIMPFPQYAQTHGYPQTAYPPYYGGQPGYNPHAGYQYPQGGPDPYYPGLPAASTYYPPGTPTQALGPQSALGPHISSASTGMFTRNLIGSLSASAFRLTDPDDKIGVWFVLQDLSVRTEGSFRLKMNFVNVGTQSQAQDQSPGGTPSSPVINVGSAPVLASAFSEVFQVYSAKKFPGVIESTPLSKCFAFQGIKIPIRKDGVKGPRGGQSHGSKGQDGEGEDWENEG
Particulars: protein: ivt;ivt; tags: C-terminal TEV site-6xHis;C-terminal TEV site-6xHis; copies: 1;1; label: 5'-IRDye800 (Fwd strand); blunt.

B1: CBP1 promoter Motif A probe (dsDNA)
DNA 1: TAATGGTTCCAGATTGAGTTTCGTTTAAAGTTCACAACTCAATTCGGCAGCTCCGCTGCA
DNA 2: TGCAGCGGAGCTGCCGAATTGAGTTGTGAACTTTAAACGAAACTCAATCTGGAACCATTA
Consider B1, for which the binding result in the data set with Ryp1(N) and in the data set with Ryp1 was “binds” each time.

B2: CBP1 promoter Motif B probe (dsDNA)
DNA 1: ATCAGGCGTCCGATCAGGTGATTGCTTTTAACCTTGGGATCCAGAGATCTCTCTATCTTT
DNA 2: AAAGATAGAGAGATCTCTGGATCCCAAGGTTAAAAGCAATCACCTGATCGGACGCCTGAT
Regarding B2, in the data set with Ryp2;Ryp3, the binding result is reported as “binds”.

The record behind these values is paper PMC3720256.
